Experimental data reported in article PMC11386428.

Key:
[1] = target: tau_(1N4R), full-length 1N4R tau, labelled with Alexa Fluor 488 (human (by the printed UniProt entry)); experiment: fluorescence correlation spectroscopy (FCS); ~20 nM fluorescent protein (Alexa 488-labelled tau construct or eGFP) with unlabelled αS seeds at 20, 60 or 100 nM (monomer units); 20°C; 50 mM Na2HPO4, 50 mM NaCl pH 7.0; two-component diffusion fit, medians of type III curves
[2] = target: tau4R, the microtubule-binding region with R1-R4, labelled with Alexa Fluor 488 (human (by the printed UniProt entry)); experiment: as above

αS_(1-100) seeds (sonicated fibrils of N-terminally acetylated αS_(1-100)) (from UniProt P37840 1-100) (complex)
Q (brightness of bound tau relative to monomer tau) at 20 nM αS (1-100) seeds [1]: 2.3
Q (brightness of bound tau relative to monomer tau) at 60 nM αS (1-100) seeds [1]: 2
Q (brightness of bound tau relative to monomer tau) at 100 nM αS (1-100) seeds [1]: 2.7
median fB (fraction of tau with τD2) at 20 nM αS (1-100) seeds [1]: 0.055
median fB (fraction of tau with τD2) at 60 nM αS (1-100) seeds [1]: 0.053
median fB (fraction of tau with τD2) at 100 nM αS (1-100) seeds [1]: 0.16
median type III τ (D2app) at 20 nM αS (1-100) seeds [1]: 2.8 ms
median type III τ (D2app) at 60 nM αS (1-100) seeds [1]: 2.3 ms
median type III τ (D2app) at 100 nM αS (1-100) seeds [1]: 2.2 ms
Q (brightness of bound tau relative to monomer tau) at 20 nM αS (1-100) seeds [2]: 1
Q (brightness of bound tau relative to monomer tau) at 60 nM αS (1-100) seeds [2]: 1
Q (brightness of bound tau relative to monomer tau) at 100 nM αS (1-100) seeds [2]: 1
median fB (fraction of tau with τD2) at 20 nM αS (1-100) seeds [2]: 0.023
median fB (fraction of tau with τD2) at 60 nM αS (1-100) seeds [2]: 0.11
median fB (fraction of tau with τD2) at 100 nM αS (1-100) seeds [2]: 0.11
median type III τ (D2app) at 20 nM αS (1-100) seeds [2]: 2.1 ms
median type III τ (D2app) at 60 nM αS (1-100) seeds [2]: 1.8 ms
median type III τ (D2app) at 100 nM αS (1-100) seeds [2]: 2.8 ms
